Measured values published in publication PMC5362816.

Legend:
[1] = molecular target: HA-tagged CaM12 mutant (rat) (UniProt P0DP29); experiment: co-IP; HA-CaM or mutants co-expressed with TRPA1-V5 in HEK293; IP with anti-HA.11 and Protein A/G PLUS-Agarose in 2 mM Ca2+; blot with anti-V5; band intensity by ImageJ, normalized by total TRPA1
[2] = molecular target: HA-tagged CaM3 mutant (rat) (UniProt P0DP29); experiment: as above
[3] = molecular target: HA-tagged CaM4 mutant (rat) (UniProt P0DP29); experiment: as above
CaM-agarose (Sigma) = CaM-agarose (Sigma) (UniProt P62157); experiment: pull-down; CaM-agarose (Sigma) incubated with HEK293 lysate expressing a V5-His-tagged TRP channel; 20 mM Tris-HCl pH 7.4, 150 mM NaCl, 1% NP-40, 4 °C; 1 mM Ca2+ (Fig. 2A) or 2 mM Ca2+ (Fig. 2B); blot with anti-V5

Chain of TRPA1-V5-His (×6) (Q8BLA8 whole entry): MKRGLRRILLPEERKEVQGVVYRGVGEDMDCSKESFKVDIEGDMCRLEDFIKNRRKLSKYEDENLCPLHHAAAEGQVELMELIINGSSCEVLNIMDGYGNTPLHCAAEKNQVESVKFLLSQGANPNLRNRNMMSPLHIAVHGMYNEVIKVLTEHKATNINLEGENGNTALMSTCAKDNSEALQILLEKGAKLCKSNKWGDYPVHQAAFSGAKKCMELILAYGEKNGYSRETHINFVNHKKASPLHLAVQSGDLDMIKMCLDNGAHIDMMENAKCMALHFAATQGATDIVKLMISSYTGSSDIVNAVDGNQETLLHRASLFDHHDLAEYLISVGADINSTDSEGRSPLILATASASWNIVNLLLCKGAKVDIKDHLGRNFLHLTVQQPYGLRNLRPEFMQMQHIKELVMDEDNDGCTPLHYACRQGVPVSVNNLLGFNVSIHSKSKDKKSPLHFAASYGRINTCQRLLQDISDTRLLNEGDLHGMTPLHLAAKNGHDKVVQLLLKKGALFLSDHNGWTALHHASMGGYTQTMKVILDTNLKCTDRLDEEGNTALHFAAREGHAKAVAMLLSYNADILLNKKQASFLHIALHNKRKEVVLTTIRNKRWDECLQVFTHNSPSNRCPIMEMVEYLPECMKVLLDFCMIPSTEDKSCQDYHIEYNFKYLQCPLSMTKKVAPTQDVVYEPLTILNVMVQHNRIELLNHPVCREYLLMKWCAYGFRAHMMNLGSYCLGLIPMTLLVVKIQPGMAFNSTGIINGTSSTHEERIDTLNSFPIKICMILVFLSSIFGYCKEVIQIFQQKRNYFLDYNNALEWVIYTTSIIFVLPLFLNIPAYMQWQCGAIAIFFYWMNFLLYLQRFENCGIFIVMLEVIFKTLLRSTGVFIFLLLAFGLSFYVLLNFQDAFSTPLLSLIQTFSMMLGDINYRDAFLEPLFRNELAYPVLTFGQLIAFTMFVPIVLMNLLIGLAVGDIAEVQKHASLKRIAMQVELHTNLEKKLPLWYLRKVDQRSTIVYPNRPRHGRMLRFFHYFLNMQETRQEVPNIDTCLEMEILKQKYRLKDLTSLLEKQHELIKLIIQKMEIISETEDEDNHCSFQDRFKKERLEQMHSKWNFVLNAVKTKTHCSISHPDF

Substance | percent reduction in TRPA1-CaM binding against wild-type CaM [1] [%] | percent reduction in TRPA1-CaM binding against wild-type CaM [2] [%] | percent reduction in TRPA1-CaM binding against wild-type CaM [3] [%] | relative binding to CaM (normalized by total input) (CaM-agarose (Sigma))
TRPA1-V5-His (×6) (from UniProt Q8BLA8 1-1125) (natural protein) | 40 | 60 | 87 | 
TRPV3 (V5-His tagged) (natural protein) |  |  |  | 0.2
